Data reported in article PMC3020918.

Target: myc-Snc2p (S. cerevisiae) (UniProt P33328)
Assay: co-IP

Sequence of UniProt P33328 (P33328 whole entry): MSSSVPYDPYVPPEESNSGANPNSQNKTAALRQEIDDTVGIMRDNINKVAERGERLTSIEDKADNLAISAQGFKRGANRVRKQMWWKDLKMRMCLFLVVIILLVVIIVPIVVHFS

With “Sso1/2p (endogenous) (from UniProt P32867 1-290) (natural protein)” the percent reduction of co-precipitation, wt cells at 37°C against 30°C was 10%.
